# Laboratory results as given in PMC3770614.
# Target: nucleosomes decorated with both H3KC4me3 and H3K9ac or H3K14ac
# Test: pull-down; 130 pmol recombinant nucleosome (biotinylated 601 Widom DNA, weak TATA) on magnetic streptavidin beads, 500 µg HeLa nuclear extract, 2–3 hours at 4°C; 20 mM HEPES pH 7.5, 150 mM NaCl, 0.2 mM EDTA, 20% glycerol, 0.1% NP-40, 1 mM DTT; no competitor DNA; immunoblot of eluted proteins
substance,measurement,value
TFIID complex (from UniProt P21675 1-1893; Q6P1X5 1-1199; Q5VWG9 1-929; O00268 1-1085; Q15542 1-800; P49848 1-677; Q15545 1-349; Q7Z7C8 1-310; Q16594 1-264; Q12962 1-218; Q15544 1-211; Q16514 1-161; Q15543 1-124; P20226 1-339),fold binding compared to H3KC4me3 alone,1.2 to 1.4 fold
